Common to all, as to assay: cell-based or functional assay
Test [1] concerns the target SARS-CoV-2 S:B.1.1351+Δ19aa spike protein (B.1.351, encoded by pGM970, S-LV v04) (SARS-CoV-2) (UniProt P0DTC2).
Test [2] deals with SARS-CoV-2 S:G614+Δ19aa spike protein (encoded by pGM907, S-LV v02) (SARS-CoV-2) (UniProt P0DTC2).
Test [3] concerns the target SARS-CoV-2 S:B.1.1.7+Δ19aa spike protein (encoded by pGM965, S-LV v04) (SARS-CoV-2) (UniProt P0DTC2).

For the substance “MM43 neutralising antibody (mouse IgG1, SARS-CoV-2 S neutralising antibody, Sino Biological, Catalogue No. 40591-MM43)”, the MM43 IC50 (ug/mL), neutralisation of S-LV transduction is 0.5 µg/mL in test [1] and 0.8 µg/mL in test [2].
On to “R001 neutralising antibody (rabbit IgG, SARS-CoV-2 S neutralising antibody, Sino Biological, Catalogue No. 40592-R001)”, for which the R001 IC50 (ug/mL), neutralisation of S-LV transduction in test [2] was 0.06 µg/mL; in test [3], 0.32 µg/mL.

Source of the values: patent publication US20250304996A1.
